Blank lines part the entries; values can stand above or below the substance they belong to. Ends that are not written are not given here.
Assays:
[1] = biological target: T1, A1PI (Homo sapiens, UniProt P01009); experiment: A1PI purification from 5 mg hSA + 1 mg A1PI on peptide column, A1PI mass balance; type: binding; conditions: A1PI, 5 mg hSA + 1 mg A1PI; for Mass Protein per Eluate Fraction, 1M NaCl / Mass Protein per Eluate Fraction, 2% Ac. Acid / Mass Protein per Eluate Fraction, Flow: * Below detection limit; for Percent Eluted by Fraction, 1M NaCl / Percent Eluted by Fraction, 2% Ac. Acid / Percent Eluted by Fraction, 3M NaCl / Percent Eluted by Fraction, Flow: relative to total eluted
T1 construct: Human plasma is currently the only approved source of therapeutic AlPI
T1 sequence (P01009 25-418): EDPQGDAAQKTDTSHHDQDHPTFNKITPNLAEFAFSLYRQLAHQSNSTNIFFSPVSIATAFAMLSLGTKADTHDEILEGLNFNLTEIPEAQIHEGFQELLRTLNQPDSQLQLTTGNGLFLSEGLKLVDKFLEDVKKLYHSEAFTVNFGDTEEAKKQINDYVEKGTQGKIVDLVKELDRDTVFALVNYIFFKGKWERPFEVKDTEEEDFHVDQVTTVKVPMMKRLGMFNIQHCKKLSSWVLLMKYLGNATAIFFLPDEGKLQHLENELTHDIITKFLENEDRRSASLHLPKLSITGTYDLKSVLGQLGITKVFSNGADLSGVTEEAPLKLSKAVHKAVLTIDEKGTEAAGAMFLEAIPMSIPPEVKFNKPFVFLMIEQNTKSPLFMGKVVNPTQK
Procedure, shortened: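 Mass balance by immunonephelometry of fractions from step elutions (1M NaCl, 3M NaCl, 2% acetic acid, neutralised with Tris) at 865 μl/min. Sample was a mixture of 1 mg A1PI and 5 mg hSA held 10 min on peptide-derivatised Toyopearl columns (0.1 mmole/g) at 4 °C or 20 °C.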

[2] = biological target: T1, A1PI; experiment: A1PI yield from dialyzed (aqueous) Effluent II+III; type: binding; conditions: 4° C.
Description: Effluent II+III was dialyzed against equilibration buffer at 4° C. to remove the ethanol using a 15,000 molecular weight cut-off membrane. Nephelometry of the Eff. […] A portion of the identified sequences were assayed under the same conditions applied for neat Eff. II+III at 4° C. […] II+III compared to the neat, ethanol-containing feed. The binding strength differed for the aqueous feed as more AlPI eluted in 1M NaCl for the aqueous feed. The AlPI eluted in the 1M NaCl fractions was not as enriched as that eluted in the acid eluates.

[3] = biological target: T1, A1PI; experiment: Purification of A1PI from Effluent II+III on peptide column, A1PI mass balance; type: binding; conditions: A1PI, 1 ml Eff. II+III, 4° C.
Procedure, shortened: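 First, 1 ml of the ethanolic Cohn intermediate (20% ethanol, ~1 mg/ml A1PI) is injected and held for a 10 min residence time. Columns are then eluted stepwise at a constant 865 μl/min with 1M NaCl, 3M NaCl and finally 2% acetic acid, all at 4° C.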

[4] = test system: Immunoglobulin A (IgA); experiment: Purification from Effluent II+III, IgA mass balance; type: binding, human; conditions: 1 ml Eff. II+III, 4° C.
Description: (§1) Sequences 1-11 and 15 were assayed with Effluent II+III (Eff. II+III). Eff. II+III is a process intermediate in the Cohn plasma fractionation process. The feed stream contains 20% (by volume) ethanol, 20-25 mg/ml hSA and approximately 1 mg/ml AlPI. The stream also contains other proteins including anti-thrombin III (AT3), immunoglobin G (IgG), immunoglobin A (IgA), apolipoprotein alpha-1 (Apo A-1), transferrin (Trf), haptoglobin (Hpt), and alpha-1 acid glycoprotein (AAG) at concentrations ranging from 0.1-1 mg/ml.
(§2) The columns were assayed using the same technique as the hSA+AlPI experiments, allowing for a 10 minute residence time followed by a constant flow rate of 865 μl/min with step elutions of 1M NaCl, 3M NaCl, and 2% acetic acid. All experiments were conducted at 4° C. The mass balances for the injection of 1 ml Eff. […] The AlPI was enriched from 3% of the total protein in the feed to upwards of 50% in the acid eluate.

[5] = test system: Immunoglobulin G (IgG); experiment: Purification from Effluent II+III, IgG mass balance; type: binding, human; conditions: 1 ml Eff. II+III, 4° C.
Description: as §1, §2

[6] = biological target: T1, A1PI; experiment: A1PI binding on peptide-resin column, injection of 1 mg A1PI in equilibration buffer; conditions: 1 mg A1PI in equilibration buffer
Procedure, shortened: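 Percent of total eluted A1PI per fraction (flowthrough, NaCl steps, 2% acetic acid) determined by A280 integration or immunonephelometry. Columns of peptide-derivatized A-Totda-Toyopearl resin (0.1 mmole/g) received 1 mg A1PI at 4 °C or 20 °C, flow 865 or 523 μl/min.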

[7] = biological target: T2, apolipoprotein alpha-1 (Apo A-1) (Homo sapiens, UniProt P02647); experiment: Purification from Effluent II+III, Apo A-1 mass balance; type: binding; conditions: 1 ml Eff. II+III, 4° C.
T2 construct: Eff; II+III is a process intermediate in the Cohn plasma fractionation process; tissue Bayer Corporation (Clayton, N.C.); host or cells: plasma fraction: Cohn Effluent II+III
T2 sequence (P02647 19-267): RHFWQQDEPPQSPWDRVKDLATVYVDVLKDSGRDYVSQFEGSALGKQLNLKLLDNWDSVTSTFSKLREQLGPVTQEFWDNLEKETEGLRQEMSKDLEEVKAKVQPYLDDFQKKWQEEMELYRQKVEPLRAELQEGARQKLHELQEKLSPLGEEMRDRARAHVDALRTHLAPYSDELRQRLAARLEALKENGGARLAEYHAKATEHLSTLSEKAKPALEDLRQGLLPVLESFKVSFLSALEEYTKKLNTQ
Description: as §1, §2

[8] = biological target: T1, A1PI; experiment: Capture and elution of active A1PI with 2M urea buffer (elastase inhibition activity assay and immunonephelometry); type: binding
[9] = 1 ml dialyzed Eff. II+III (ethanol removed)
[10] = A1PI, 1 ml dialyzed Eff. II+III
[11] = * as in Tables 4, 5 (below detection limit)

Mass Protein per Eluate Fraction, 1M NaCl ([1]; 4° C.): 0.10 mg
Mass Protein per Eluate Fraction, 2% Ac. Acid ([1]; 4° C.): 0.18 mg
Mass Protein per Eluate Fraction, Flow ([1]; 4° C.): 0.52 mg
Percent Eluted by Fraction, 1M NaCl ([1]; 4° C.): 13%
Percent Eluted by Fraction, 2% Ac. Acid ([1]; 4° C.): 23%
Percent Eluted by Fraction, 3M NaCl ([1]; 4° C.): 0%
Percent Eluted by Fraction, Flow ([1]; 4° C.): 65%
Mass Protein per Eluate Fraction, 1M NaCl ([1]; 20° C.): 0.07 mg
Mass Protein per Eluate Fraction, 2% Ac. Acid ([1]; 20° C.): 0.47 mg
Mass Protein per Eluate Fraction, Flow ([1]; 20° C.): 0.26 mg
Percent Eluted by Fraction, 1M NaCl ([1]; 20° C.): 9%
Percent Eluted by Fraction, 2% Ac. Acid ([1]; 20° C.): 58%
Percent Eluted by Fraction, 3M NaCl ([1]; 20° C.): 0%
Percent Eluted by Fraction, Flow ([1]; 20° C.): 33%
Mass A1PI per Eluate Fraction, 1M NaCl [2, 9]: 0.05 mg
Mass A1PI per Eluate Fraction, 2% Acetic Acid [2, 9]: 0.38 mg
Mass A1PI per Eluate Fraction, Flowthrough [2, 9]: 0.19 mg
Percent Eluted by Fraction, 1M NaCl [2, 10]: 9%
Percent Eluted by Fraction, 2% Acetic Acid [2, 10]: 60%
Percent Eluted by Fraction, Flowthrough [2, 10]: 31%
Percent Eluted by Fraction, 1M NaCl [3]: 0%
Percent Eluted by Fraction, 2% Acetic Acid [3]: 79%
Percent Eluted by Fraction, 3M NaCl [3]: 0%
Percent Eluted by Fraction, Flow [3]: 21%
Mass Protein per Eluate Fraction, 2% Acetic Acid [3, 11]: 0.50 mg
Mass Protein per Eluate Fraction, Flow [3, 11]: 0.13 mg
Percent A1PI Eluted by Fraction Based on Absorbance at 280 nm, 1M NaCl ([6]; 4° C.): 52%
Percent A1PI Eluted by Fraction Based on Absorbance at 280 nm, 2% Acetic Acid ([6]; 4° C.): 48%
Percent A1PI Eluted by Fraction Based on Absorbance at 280 nm, Flowthrough ([6]; 4° C.): 0%
Percent A1PI Eluted by Fraction, 1M NaCl ([6]; 20° C.): 17%
Percent A1PI Eluted by Fraction, 2% Acetic Acid ([6]; 20° C.): 55%
Percent A1PI Eluted by Fraction, Flowthrough ([6]; 20° C.): 28%
Percent Eluted by Fraction, 1M NaCl [7]: 0%
Percent Eluted by Fraction, 2% Acetic Acid [7]: 100%
Percent Eluted by Fraction, 3M NaCl [7]: 0%
Percent Eluted by Fraction, Flow [7]: 0%
Mass Protein per Eluate Fraction, 2% Acetic Acid [7, 11]: 0.43 mg
Substance: IIWLYK
Percent Eluted by Fraction, 1M NaCl [4]: 34%
Percent Eluted by Fraction, 2% Acetic Acid [4]: 49%
Percent Eluted by Fraction, 3M NaCl [4]: 0%
Percent Eluted by Fraction, Flow [4]: 17%
Mass Protein per Eluate Fraction, 1M NaCl [4, 11]: 0.12 mg
Mass Protein per Eluate Fraction, 2% Acetic Acid [4, 11]: 0.17 mg
Mass Protein per Eluate Fraction, Flow [4, 11]: 0.06 mg
Percent Eluted by Fraction, 1M NaCl [5]: 9%
Percent Eluted by Fraction, 2% Acetic Acid [5]: 0%
Percent Eluted by Fraction, 3M NaCl [5]: 0%
Percent Eluted by Fraction, Flow [5]: 91%
Mass Protein per Eluate Fraction, 1M NaCl [5, 11]: 0.02 mg
Mass Protein per Eluate Fraction, Flow [5, 11]: 0.23 mg

Substance: Neat A1PI: freshly dissolved human alpha-1 proteinase inhibitor fed to the columns
Mass A1PI in Urea Eluate (mg), Activity ([8]; 1 mg A1PI, 4° C., eluted with 2M urea, pH 6, elastase inhibition activity assay): 0.87 mg
Mass A1PI in Urea Eluate (mg), Nephelometry ([8]; 1 mg A1PI, 4° C., eluted with 2M urea, pH 6, immunonephelometry): 1.10 mg
Specific Activity ([8]; activity assay mass relative to immunonephelometry mass): 0.79 mg/mg
Specific Activity ([8]; mass of A1PI by activity assay relative to immunonephelometry, urea eluate, 4° C.): 0.79 mg/mg
